The results in this text go back to patent US20110047631A1 (MEDICAL COLLEGE OF GEORGIA RESEARCH INSTITUTE, published 2011).

In this assay the target is T1, purified wild-type tau441 (UniProt P10636-8 1-441).
T1 construct: The 441-residue isoform, not the canonical UniProt entry length; Used at 2 uM; also called purified tau 441; purified tau
The assay can be described thus: purified wild-type tau441 and purified Hsp110 incubated together, immunoprecipitation, immunoblot. The protocol:
As the data in FIG. 6 indicates, Hsp110 is present in tau immunocomplexes; however, it is not clear whether the interaction is direct or indirect. In order to determine whether Hsp110 interacts with tau directly, we incubated purified wild-type tau441 and Hsp110 and subjected them to immunoprecipitation analyses.

T1 sequence (P10636 other isoform, or with tags, fused parts or gaps limits assumed): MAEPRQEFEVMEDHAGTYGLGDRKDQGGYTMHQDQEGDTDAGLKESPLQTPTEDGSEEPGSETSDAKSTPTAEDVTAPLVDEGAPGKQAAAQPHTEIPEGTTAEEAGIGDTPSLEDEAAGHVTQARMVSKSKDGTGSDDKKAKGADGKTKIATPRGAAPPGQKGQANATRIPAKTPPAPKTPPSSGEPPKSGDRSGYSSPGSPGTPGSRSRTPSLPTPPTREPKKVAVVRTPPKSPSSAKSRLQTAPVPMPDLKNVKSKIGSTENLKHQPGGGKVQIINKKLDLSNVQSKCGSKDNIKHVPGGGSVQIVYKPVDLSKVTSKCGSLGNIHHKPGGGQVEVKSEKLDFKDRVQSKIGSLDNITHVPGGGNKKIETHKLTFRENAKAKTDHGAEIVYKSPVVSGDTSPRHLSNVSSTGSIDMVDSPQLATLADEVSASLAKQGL

B1: purified full-length Hsp110 (human) (other, UniProt Q92598 2-858, looked up)
chain: SVVGLDVGSQSCYIAVARAGGIETIANEFSDRCTPSVISFGSKNRTIGVAAKNQQITHANNTVSNFKRFHGRAFNDPFIQKEKENLSYDLVPLKNGGVGIKVMYMGEEHLFSVEQITAMLLTKLKETAENSLKKPVTDCVISVPSFFTDAERRSVLDAAQIVGLNCLRLMNDMTAVALNYGIYKQDLPSLDEKPRIVVFVDMGHSAFQVSACAFNKGKLKVLGTAFDPFLGGKNFDEKLVEHFCAEFKTKYKLDAKSKIRALLRLYQECEKLKKLMSSNSTDLPLNIECFMNDKDVSGKMNRSQFEELCAELLQKIEVPLYSLLEQTHLKVEDVSAVEIVGGATRIPAVKERIAKFFGKDISTTLNADEAVARGCALQCAILSPAFKVREFSVTDAVPFPISLIWNHDSEDTEGVHEVFSRNHAAPFSKVLTFLRRGPFELEAFYSDPQGVPYPEAKIGRFVVQNVSAQKDGEKSRVKVKVRVNTHGIFTISTASMVEKVPTEENEMSSEADMECLNQRPPENPDTDKNVQQDNSEAGTQPQVQTDAQQTSQSPPSPELTSEENKIPDADKANEKKVDQPPEAKKPKIKVVNVELPIEANLVWQLGKDLLNMYIETEGKMIMQDKLEKERNDAKNAVEEYVYEFRDKLCGPYEKFICEQDHQNFLRLLTETEDWLYEEGEDQAKQAYVDKLEELMKIGTPVKVRFQEAEERPKMFEELGQRLQHYAKIAADFRNKDEKYNHIDESEMKKVEKSVNEVMEWMNNVMNAQAKKSLDQDPVVRAQEIKTKIKELNNTCEPVVTQPKPKIESPKLERTPNGPNIDKKEEDLEDKNNFGAEPPHQNGECYPNEKNSVNMDLD
notes: mature; used at 2 uM; also called purified Hsp110
B1: the binding result is “binds”.
